Target: cyclin-dependent kinase 1 (CDK1) (Xenopus laevis (endogenous in oocyte CSF extract))

“glutathione S-transferase-tagged cell division cycle 6 (GST-CDC6) (natural protein)” showed a histone H1 kinase activity of CDC6-depleted CSF extract with 10 to 20 nM GST-CDC6 added (about 40% less with 10 nM, 45% less with 20 nM) of 45 % less.

— paper PMC12072117
